# Legend:
# Assay type in all cases: in vivo
# [1] = test system: diet-induced obese (DIO) mice; experiment: Body composition and metabolism in diet-induced obese (DIO) mice
# Description: (§1) Experiments were performed to assess the effects of P1229 on body composition and metabolism in diet-induced obese (DIO) mice. DIO mice were purchased from Jackson Laboratories (#380050). Briefly, mice were fed a high-fat diet (HFD, 60% kcal from fat) from 6 weeks of age until 22 weeks of age (total of 16 weeks on the HFD). […] After 3 weeks of treatments, some animals were sacrificed and scanned by EchoMRI […] (FIGS. 11A-F), while others were sacrificed for tissue collection and RNA analysis. Animals were maintained on the HFD throughout the acclimatization and treatment periods. The murine version of bimagrumab used for these experiments comprises the heavy chain amino acid sequence of SEQ ID NO: 376 and the light chain sequence of SEQ ID NO: 377.
# [2] = test system: follicle-stimulating hormone (FSH); experiment: FSH production in DIO mice; conditions: 3 weeks of treatment
# Description: as §1
# Follicle-stimulating hormone (FSH) is a known biomarker of in vivo target engagement for activin receptor-based traps (See Attie et al. (2013). Muscle Nerve, 47: 416-423). To further validate in vivo target engagement for exemplary agents, FSH production was evaluated in DIO mice, as described above.
# DIO mice = experiment: Body composition in high fat diet mice, alone and in combination with incretin mimetics
# Description: Experiments were performed in vivo to investigate the potential for additive or synergistic effects between exemplary ActRIIB-ECD polypeptide constructs and incretin mimetics.
molecule,measurement,setting,value
"P1307: murine version of bimagrumab, an antibody targeting ActRIIB and ActRIIA; heavy chain SEQ ID NO: 376, light chain SEQ ID NO: 377 (antibody) heavy: MDWTWRILFLVAAATGTHAQVQLVQSGAEVKKPGASVKVSCKASGYTFTSSYINWVRQAPGQGLEWMGTINPVSGSTSYAQKFQGRVTMTRDTSISTAYMELSSLRSEDTAVYYCARGGWFDYWGQGTLVTVSSAKTTAPSVYPLAPVCGDTTGSSVTLGCLVKGYFPEPVTLTWNSGSLSSGVHTFPAVLQSDLYTLSSSVTVTSSTWPSQSITCNVAHPASSTKVDKKIEPRGPTIKPCPPCKCPAPNAAGGPSVFIFPPKIKDVLMISLSPIVTCVVVDVSEDDPDVQISWFVNNVEVHTAQTQTHREDYNSTLRVVSALPIQHQDWMSGKEFKCKVNNKDLPAPIERTISKPKGSVRAPQVYVLPPPEEEMTKKQVTLTCMVTDFMPEDIYVEWTNNGKTELNYKNTEPVLDSDGSYFMYSKLRVEKKNWVERNSYSCSVVHEGLHNHHTTKSFSRTPGK light: MVLQTQVFISLLLWISGAYGDIALTQPASVSGSPGQSITISCTGTSSDVGSYNYVNWYQQHPGKAPKLMIYGVSKRPSGVSNRFSGSKSGNTASLTISGLQAEDEADYYCGTFAGGSYYGVFGGGTKLTVLGQPKSTPTLTVFPPSSEELKENKATLVCLISNFSPSGVTVAWKANGTPITQGVDTSNPTKEGNKFMASSFLHLTSDQWRSHNSFTCQVTHEGDTVEKSLSPAECL",hepatic Ahsg expression,[1],reduced Ahsg expression
same,hepatic Fgf21 expression,[1],reduced
same,hepatic Inhbe expression,[1],significantly decreased Inhbe expression
same,Mss51 gene expression in gastrocnemius muscle,[1]; 3 weeks,reduced Mss51 gene expression
same,fat mass and lean mass (EchoMRI),"[1]; 3 weeks s.c., P75, P1229 25 mg/kg twice weekly, P1373 5, 20, 50 mg/kg twice weekly, P1307 20 mg/kg weekly",promoted lean mass gain but less fat loss
same,FSH production,[2],significant decreases in FSH production
same,Body weight (% change from baseline),"DIO mice; DIO mice, 21 days s.c., P1307 20 mg/kg weekly, P1229 40 mg/kg twice weekly, semaglutide 40 μg/kg daily, tirzepatide 45 μg/kg daily, alone or combined",+5.4%
same,"visceral, epididymal, pericardial, peri-renal, and retroperitoneal white adipose tissue weights","DIO mice; DIO mice, D21",not significantly affected
same,gastrocnemius and tibialis anterior weights,"DIO mice; DIO mice, D21, P1229 with or without caloric restriction",significantly increased
same,Fat mass (% change from baseline),"DIO mice; as E44, NMR",−5.7%
same,Lean mass (% change from baseline),"DIO mice; as E44, NMR",+12.3%
same,Lean mass/fat mass ratio,"DIO mice; as E44, NMR",1.4

# Reference: patent US20260193317A1, “COMBINATION THERAPY WITH ACTRIIB RECEPTOR VARIANTS AND GLP-1 AGONISTS” (35PHARMA Inc., priority 2023, published 2026)
